# Test results taken from doi:10.1101/2023.02.28.527262, “Tozorakimab (MEDI3506): a dual-pharmacology anti-IL-33 antibody that inhibits IL-33 signalling via ST2 and RAGE/EGFR to reduce inflammation and epithelial dysfunction” (bioRxiv, 2023).
# T1: soluble serum stimulated 2 (sST2) (UniProt Q01638-2 19-328)
# T1 construct: ST2 (IL1RL1), truncated soluble isoform that lacks the transmembrane and intracellular domains of ST2L; also called soluble ST2; IL1RL1; source: recombinant; expression and purification described previously [21]; receptor glycoproteins re-monomerized by Superdex 200 SEC
# T1 sequence (looked up): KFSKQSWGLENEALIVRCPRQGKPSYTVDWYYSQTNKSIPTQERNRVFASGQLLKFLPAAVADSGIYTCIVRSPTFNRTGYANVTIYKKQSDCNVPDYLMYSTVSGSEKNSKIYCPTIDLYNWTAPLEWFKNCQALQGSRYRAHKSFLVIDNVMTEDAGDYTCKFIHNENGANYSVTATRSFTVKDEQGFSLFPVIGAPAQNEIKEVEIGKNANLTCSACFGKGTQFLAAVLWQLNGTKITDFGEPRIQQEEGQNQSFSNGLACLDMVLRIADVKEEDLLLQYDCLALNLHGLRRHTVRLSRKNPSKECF
# B1: reduced interleukin-33 (IL-33^red), residues 112–270 (ligand, human, UniProt O95760 112-270, looked up)
# chain: SITGISPITEYLASLSTYNDQSITFALEDESYEIYVEDLKKDEKKDKVLLSYYESQHPSNESGDGVDGKMLMVTLSPTKDFWLHANNKEHSVELHKCEKPLPDQAFFVLHNMHSNCVSFECKTDPGVFIGVKDNHLALIKVDSSENLCTENILFKLSET
# notes: Interleukin-33, human, residues 112-270, reduced form (free cysteines); also called wild-type IL-33; source: recombinant; expression and purification described previously [21]
# Molecular target: T1, soluble serum stimulated 2 (sST2)
# Assay: KinExA; kinetic exclusion assay in free solution; IL-33^red titrated into fixed sST2 (30 pM and 2.0 pM); 1:1 binding model fitted to two datasets; association rate also by KinExA
# Conditions: both partners purified
binder,measurement,value
B1,Kd,0.09 pM
same,kon,1.5e+08 M⁻¹ s⁻¹
